Laboratory results taken from patent publication US20230303674A1.

What was measured:
[1] = target: human α-CGRP 1-37 (WT) (human); test: Biacore 25°C, Fab over biotinylated CGRP on SA chip
[2] = target: human α-CGRP V32A (25-37) (human); test: Biacore SPR, 25 °C, Fab over peptide on chip; KD ratio to parent 25-37
[3] = target: human α-CGRP N31A (25-37) (human); test: as above
[4] = target: human α-CGRP V28A (25-37) (human); test: as above
[5] = target: human α-CGRP P29A (25-37) (human); test: as above
[6] = target: human α-CGRP F37A (25-37) (human); test: as above
[7] = target: human α-CGRP T30A (25-37) (human); test: as above
[8] = target: human α-CGRP S34A (25-37) (human); test: as above
[9] = target: human α-CGRP F27A (25-37) (human); test: as above
[10] = target: human α-CGRP G33A (25-37) (human); test: as above
[11] = target: human α-CGRP fragment 19-37 (human); test: Biacore SPR, 25 °C, Fab flowed over biotinylated peptide on SA chip; mean ± SD of two measurements
[12] = target: human α-CGRP fragment 25-37 (human); test: as above
[13] = target: human α-CGRP 1-37 (WT) (human); test: Biacore 37°C, Fab over biotinylated CGRP on SA chip
rat α-CGRP (1-37) (rat) = test: as above
[14] = target: human α-CGRP K35A (19-37) (human); test: Biacore SPR, 25 °C, Fab over peptide on chip; KD ratio to parent 19-37

Sequence of human α-CGRP 1-37 (WT) (human) (peptide, as listed by the source): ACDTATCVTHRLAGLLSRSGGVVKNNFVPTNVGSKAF
Sequence of rat α-CGRP (1-37) (rat) (peptide, as listed by the source): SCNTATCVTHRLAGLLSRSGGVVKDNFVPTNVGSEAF

Question: Which Kd [1] does the source give for “murine anti-CGRP monoclonal antibody 7E9, Fab fragment” here?
Answer: 1 nM

Question: What about the KD(mutant/parent) [2] of the same substance?
Answer: 41

Question: And the KD(mutant/parent) [3]?
Answer: 9

Question: What about the KD(mutant/parent) [4] of the same substance?
Answer: 1

Question: What about the KD(mutant/parent) [5] of the same substance?
Answer: 26

Question: What about the KD(mutant/parent) [6] of the same substance?
Answer: 3600

Question: And the KD(mutant/parent) [7]?
Answer: 7

Question: And the KD(mutant/parent) [8]?
Answer: 69

Question: What about the KD(mutant/parent) [9] of the same substance?
Answer: 1

Question: And the KD(mutant/parent) [10]?
Answer: 1260

Question: What about the Kd [11] of the same substance?
Answer: 1.1 nM

Question: And the Kd [12]?
Answer: 0.14 nM

Question: And the Kd [13]?
Answer: 0.9 nM

Question: What about the Kd (rat α-CGRP (1-37) (rat)) of the same substance?
Answer: 47 nM

Question: And the KD(mutant/parent) [14]?
Answer: 4
